From publication PMC2720046 (Science (New York, N.Y.), 2008) come the findings set out here.

Assay [1] addresses T1, CEP55-EABR (residues 160−217) (Homo sapiens, UniProt Q53EZ4).
T1 sequence (Q53EZ4 160-217): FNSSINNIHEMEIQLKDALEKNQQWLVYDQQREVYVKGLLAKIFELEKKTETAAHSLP
The assay can be described thus: ITC titration of peptide into CEP55-EABR solution. The format is binding. To be noted: compared with ALIX peptide. (Isothermal titration calorimetry measures the heat released or taken up as one component is titrated into another.)

For assay [2], the system named is CEP55-EABR. In words: Analytical ultracentrifugation of CEP55-EABR to peptide mixtures. The format is binding. The settings on record: TSG101 peptide added to preformed 2:1 CEP55:ALIX peptide complex.
Assay [3] relates to CEP55-EABR. The format is binding. The settings on record: pull-down by GST-ALIX fragment with TSG101 peptide competitor.
The target of assay [4] is T2, ALIX 797-809 (Homo sapiens, UniProt Q8WUM4).
T2 chain: QAQGPPYPTYPGY
The assay can be described thus: ITC.

For assay [5], the target named is T3, TSG101 154-166 (Homo sapiens, UniProt Q99816).
T3 chain: QATGPPNTSYMPG
In words: ITC.

Assay [6] relates to midbodies in HeLa cells. The assay can be described thus: Midbody localization of wild-type and mutant GFP-ALIX expressed in HeLa cells. The settings on record: full-length GFP-tagged ALIX, α−tubulin staining. The format is cell-based.

The term Kd denotes the constant that tells how readily two partners part at equilibrium. A lower Kd goes with tighter binding.

Residue numbers refer to the chain shown, from its start. Names may count otherwise.

Turning to “TSG101 peptide: related TSG101 peptide (residues 154 to 166) (QATGPPNTSYMPG; UniProt Q99816 154-166, looked up, fragment)”, the “affinity relative to ALIX peptide” value in assay [1] is “essentially the same affinity and stoichiometry”. For the same molecule, in assay [2], the “competition with ALIX peptide for CEP55 site” value was “a peak corresponding to the equivalent amount of uncomplexed peptide is formed, suggesting that TSG101 and ALIX compete for the same site”. For the same molecule, the “competition for CEP55-EABR binding site” value in assay [3] is “the two peptides interact with the same site”.

B1: CEP55 160-217 (protein)
chain: T1 sequence (Q53EZ4 160-217)
For B1, the Kd in assay [4] is 1000 nM; in assay [5], about 1000 nM.

B2: ALIX^Y806A: full-length ALIX mutant tagged with GFP (protein, UniProt Q8WUM4 1-868, looked up, variant Y806A)
chain: MATFISVQLKKTSEVDLAKPLVKFIQQTYPSGGEEQAQYCRAAEELSKLRRAAVGRPLDKHEGALETLLRYYDQICSIEPKFPFSENQICLTFTWKDAFDKGSLFGGSVKLALASLGYEKSCVLFNCAALASQIAAEQNLDNDEGLKIAAKHYQFASGAFLHIKETVLSALSREPTVDISPDTVGTLSLIMLAQAQEVFFLKATRDKMKDAIIAKLANQAADYFGDAFKQCQYKDTLPKEVFPVLAAKHCIMQANAEYHQSILAKQQKKFGEEIARLQHAAELIKTVASRYDEYVNVKDFSDKINRALAAAKKDNDFIYHDRVPDLKDLDPIGKATLVKSTPVNVPISQKFTDLFEKMVPVSVQQSLAAYNQRKADLVNRSIAQMREATTLANGVLASLNLPAAIEDVSGDTVPQSILTKSRSVIEQGGIQTVDQLIKELPELLQRNREILDESLRLLDEEEATDNDLRAKFKERWQRTPSNELYKPLRAEGTNFRTVLDKAVQADGQVKECYQSHRDTIVLLCKPEPELNAAIPSANPAKTMQGSEVVNVLKSLLSNLDEVKKEREGLENDLKSVNFDMTSKFLTALAQDGVINEEALSVTELDRVYGGLTTKVQESLKKQEGLLKNIQVSHQEFSKMKQSNNEANLREEVLKNLATAYDNFVELVANLKEGTKFYNELTEILVRFQNKCSDIVFARKTERDELLKDLQQSIAREPSAPSIPTPAYQSSPAGGHAPTPPTPAPRTMPPTKPQPPARPPPPVLPANRAPSATAPSPVGAGTAAPAPSQTPGSAPPPQAQGPPYPTAPGYPGYCQMPMPMGYNPYAYGQYNMPYPPVYHQSPGQAPYPGPQQPSYPFPQPPQQSYYPQQ
modifications: full-length GFP fusion
On to B2, for which the “midbody localization of GFP-ALIX” value in assay [6] is on record as “no midbody localization above background”.

B3: wild-type ALIX: full-length wild-type ALIX tagged with GFP (protein, UniProt Q8WUM4 1-868, looked up)
chain: B2 chain with A806Y
modifications: full-length GFP fusion
Turning to B3, the “midbody localization of GFP-ALIX” value in assay [6] was “strongly localized to midbodies”.
